B1: library; numbered along this chain (parent)
chain: MRKPRAAVGSGHRKQAASQEGRQKHAKNNSQAKPSACDGLARQPEEVVLQASVSSYHLFRDVAEVTAFRGSLLSWYDQEKRDLPWRRRAEDEMDLDRRAYAVWVSEVMLQQTQVATVINYYTGWMQKWPTLQDLASASLEEVNQLWAGLGYYSRGRRLQEGARKVVEELGGHMPRTAETLQQLLPGVGRYTAGAIASIAFGQATGVVDGNVARVLCRVRAIGADPSSTLVSQQLWGLAQQLVDPARPGDFNQAAMELGATVCTPQRPLCSQCPVESLCRARQRVEQEQLLASGSLSGSPDVEECAPNTGQCHLCLPPSEPWDQTLGVVNFPRKASRKPPREESSATCVLEQPGALGAQILLVQRPNSGLLAGLWEFPSVTWEPSEQLQRKALLQELQRWAGPLPATHLRHLGEVVHTFSHIKLTYQVYGLALEGQTPVTTVPPGARWLTQEEFHTAAVSTAMKKVFRVYQGQQPGTCMGSKRSQVSSPCSRKKPRMGQQVLDNFFRSHISTDAHSLNSAAQ

Variants of: B1
Experiment: 8OG:A repair function score (normalized; synonymous = 0, nonsense = -1) (normalized log-likelihood score); higher = more repair activity (WT-like)
Conditions: with 8OG:A DNA repair reporter (GFP) in HEK-293 MUTYH KO cells
How it was run: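 Lentiviral MUTYH cDNA NNN codon-scan libraries were expressed in MUTYH knockout HEK-293 cells with 10 pg/ml doxycycline, and the cells received an 8OG:A GFP repair reporter together with mCherry. At 72 h, viable mCherry+ cells went into GFP+ (repair) or GFP− bins, three replicates per tile, before tile amplicons were sequenced. A repair function score was then built from per-tile Rosace fitness scores, anchored on the synonymous and nonsense distributions. Synonymous medians sat at 0 and nonsense at -1, and variants under 300 counts per million at the start were left out.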
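Note: cells sorted at 72 h after reporter transfection.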

8OG:A repair function score: each site, then its substitutions
S197: Q -1.14 | P -1.3 | W -1.37 | D -1.04 | L -1.13 | A -0.271 | V -0.973 | H -1.22 | E -0.903 | N -1.17 | G -0.747 | C -0.73 | K -1 | T -0.695 | Y -0.898 | F -0.956 | R -1.21 | I -0.959
T191: Y -1.07 | R -1.16 | Q -0.768 | V -0.236 | P -0.924 | S -0.16 | W -1.2
A196: L -0.68 | H -0.673 | I -0.703 | D -0.616 | W -1.18 | N -0.697 | M -0.507 | V -0.382 | F -0.939 | K -0.993 | E -0.674 | T -0.342 | C -0.233 | P -1.11 | Q -0.897 | G -0.309 | S 0.00714 | R -0.93 | Y -0.723
I195: F -1.08 | N -1.12 | E -1.06 | H -1.14 | Y -0.741 | V -0.0879 | Q -1.01 | T -0.534 | M -0.23 | P -1.04 | A -0.996 | C -0.59 | S -0.944 | W -0.908 | L -0.287 | G -0.964 | R -1.02 | D -1.1 | K -1.05
I198: C -0.474 | T -0.36 | F -0.447 | V -0.254 | R -0.575 | K -1.06 | H -0.963 | Y -0.792 | P -0.841 | N -0.562 | L -0.391 | S -0.757 | A -0.548 | Q -0.466 | G -1.05 | E -0.552 | D -1.1 | M -0.189
A192: K -1.07 | G -0.105 | T -1.07 | N -0.876 | S -0.166 | E -0.908 | P -1.17 | M -0.964 | L -1.11 | Q -1.03 | D -0.927 | F -1.12 | I -1.07 | Y -1.07 | H -0.926 | W -1.16 | C -0.572 | V -0.943 | R -0.901
A199: C 0.000923 | S -0.171 | I -0.536 | D -1.07 | Q -1.11 | P -1.07 | Y -1.05 | K -1.14 | R -1.16 | M -0.87 | T -0.214 | V -0.155 | F -1.13 | G -0.183 | H -0.874 | E -1.06 | N -0.885 | L -1.01 | W -0.8
A194: H -1.31 | E -0.986 | S -0.169 | L -0.733 | Q -0.577 | I -0.291 | T -0.422 | V -0.443 | M -0.32 | N -0.737 | K -1.06 | W -1.05 | D -1.03 | F -1.16 | C -0.313 | P -1.06 | G -0.624 | Y -1.23 | R -1.1
G193: E -0.722 | I -0.531 | D -0.37 | T -0.169 | S 0.0283 | K -0.203 | V -0.346 | N 0.0644 | C 0.0546 | Q -0.238 | R -0.0604 | H -0.0997 | M -0.156 | Y -0.241 | L -0.637 | P -0.524 | F -0.465 | A -0.0458 | W -0.832
F200: L -0.252 | D -0.891 | M 0.0616 | C -0.266 | G -0.582 | A -0.576 | K -0.874 | H -0.308 | E -0.847 | I -0.505
